From paper PMC12416549 (2024)

Target: T1, TNFR1 (Homo sapiens, UniProt P19438)
T1 chain: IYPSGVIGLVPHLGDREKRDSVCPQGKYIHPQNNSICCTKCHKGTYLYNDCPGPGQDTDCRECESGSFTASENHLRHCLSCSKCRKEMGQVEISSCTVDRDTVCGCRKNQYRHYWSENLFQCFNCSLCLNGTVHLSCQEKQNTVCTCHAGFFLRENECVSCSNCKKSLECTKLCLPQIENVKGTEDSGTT
Assay: yeast display SC50

Binder | apparent Kd (screen)
K85R (designed binder) SMEEEVEKAAKEYEKKKKEAIEKHLEKLKAKDKEAAERFLKELEEAAKEYAKDEAKTMSEEEAKRRAKKYKEKVLLSELSEEEQREIKEAEEKLVRTILKYVEEAAK | 0.593 nM
K17P (designed binder) SMEEEVEKAAKEYEKKPKEAIEKHLEKLKAKDKEAAERFLKELEEAAKEYAKDEAKTMSEEEAKRRAKKYKEKVLLSELSEEEQKEIKEAEEKLVRTILKYVEEAAK | 22.2 nM
A20V (designed binder) SMEEEVEKAAKEYEKKKKEVIEKHLEKLKAKDKEAAERFLKELEEAAKEYAKDEAKTMSEEEAKRRAKKYKEKVLLSELSEEEQKEIKEAEEKLVRTILKYVEEAAK | 2.73 nM
K93H (designed binder) SMEEEVEKAAKEYEKKKKEAIEKHLEKLKAKDKEAAERFLKELEEAAKEYAKDEAKTMSEEEAKRRAKKYKEKVLLSELSEEEQKEIKEAEEHLVRTILKYVEEAAK | 0.869 nM
E83C (designed binder) SMEEEVEKAAKEYEKKKKEAIEKHLEKLKAKDKEAAERFLKELEEAAKEYAKDEAKTMSEEEAKRRAKKYKEKVLLSELSEECQKEIKEAEEKLVRTILKYVEEAAK | 0.446 nM
K29R (designed binder) SMEEEVEKAAKEYEKKKKEAIEKHLEKLRAKDKEAAERFLKELEEAAKEYAKDEAKTMSEEEAKRRAKKYKEKVLLSELSEEEQKEIKEAEEKLVRTILKYVEEAAK | 0.539 nM
A90L (designed binder) SMEEEVEKAAKEYEKKKKEAIEKHLEKLKAKDKEAAERFLKELEEAAKEYAKDEAKTMSEEEAKRRAKKYKEKVLLSELSEEEQKEIKELEEKLVRTILKYVEEAAK | 0.446 nM
E44D (designed binder) SMEEEVEKAAKEYEKKKKEAIEKHLEKLKAKDKEAAERFLKELDEAAKEYAKDEAKTMSEEEAKRRAKKYKEKVLLSELSEEEQKEIKEAEEKLVRTILKYVEEAAK | 0.869 nM
E91F (designed binder) SMEEEVEKAAKEYEKKKKEAIEKHLEKLKAKDKEAAERFLKELEEAAKEYAKDEAKTMSEEEAKRRAKKYKEKVLLSELSEEEQKEIKEAFEKLVRTILKYVEEAAK | 12.5 nM
K11T (designed binder) SMEEEVEKAATEYEKKKKEAIEKHLEKLKAKDKEAAERFLKELEEAAKEYAKDEAKTMSEEEAKRRAKKYKEKVLLSELSEEEQKEIKEAEEKLVRTILKYVEEAAK | 0.446 nM
E89D (designed binder) SMEEEVEKAAKEYEKKKKEAIEKHLEKLKAKDKEAAERFLKELEEAAKEYAKDEAKTMSEEEAKRRAKKYKEKVLLSELSEEEQKEIKDAEEKLVRTILKYVEEAAK | 0.653 nM
K48C (designed binder) SMEEEVEKAAKEYEKKKKEAIEKHLEKLKAKDKEAAERFLKELEEAACEYAKDEAKTMSEEEAKRRAKKYKEKVLLSELSEEEQKEIKEAEEKLVRTILKYVEEAAK | 0.49 nM
I87N (designed binder) SMEEEVEKAAKEYEKKKKEAIEKHLEKLKAKDKEAAERFLKELEEAAKEYAKDEAKTMSEEEAKRRAKKYKEKVLLSELSEEEQKENKEAEEKLVRTILKYVEEAAK | 12.5 nM
L28T (designed binder) SMEEEVEKAAKEYEKKKKEAIEKHLEKTKAKDKEAAERFLKELEEAAKEYAKDEAKTMSEEEAKRRAKKYKEKVLLSELSEEEQKEIKEAEEKLVRTILKYVEEAAK | 0.79 nM
E12K (designed binder) SMEEEVEKAAKKYEKKKKEAIEKHLEKLKAKDKEAAERFLKELEEAAKEYAKDEAKTMSEEEAKRRAKKYKEKVLLSELSEEEQKEIKEAEEKLVRTILKYVEEAAK | 0.446 nM
K41S (designed binder) SMEEEVEKAAKEYEKKKKEAIEKHLEKLKAKDKEAAERFLSELEEAAKEYAKDEAKTMSEEEAKRRAKKYKEKVLLSELSEEEQKEIKEAEEKLVRTILKYVEEAAK | 0.869 nM
E72Q (designed binder) SMEEEVEKAAKEYEKKKKEAIEKHLEKLKAKDKEAAERFLKELEEAAKEYAKDEAKTMSEEEAKRRAKKYKQKVLLSELSEEEQKEIKEAEEKLVRTILKYVEEAAK | 2.05 nM
E45W (designed binder) SMEEEVEKAAKEYEKKKKEAIEKHLEKLKAKDKEAAERFLKELEWAAKEYAKDEAKTMSEEEAKRRAKKYKEKVLLSELSEEEQKEIKEAEEKLVRTILKYVEEAAK | 1.27 nM

Binder | apparent Kd (screen)
I21F (designed binder) SMEEEVEKAAKEYEKKKKEAFEKHLEKLKAKDKEAAERFLKELEEAAKEYAKDEAKTMSEEEAKRRAKKYKEKVLLSELSEEEQKEIKEAEEKLVRTILKYVEEAAK | 0.49 nM
E7I (designed binder) SMEEEVIKAAKEYEKKKKEAIEKHLEKLKAKDKEAAERFLKELEEAAKEYAKDEAKTMSEEEAKRRAKKYKEKVLLSELSEEEQKEIKEAEEKLVRTILKYVEEAAK | 26.9 nM
A105R (designed binder) SMEEEVEKAAKEYEKKKKEAIEKHLEKLKAKDKEAAERFLKELEEAAKEYAKDEAKTMSEEEAKRRAKKYKEKVLLSELSEEEQKEIKEAEEKLVRTILKYVEERAK | 2.73 nM
R38L (designed binder) SMEEEVEKAAKEYEKKKKEAIEKHLEKLKAKDKEAAELFLKELEEAAKEYAKDEAKTMSEEEAKRRAKKYKEKVLLSELSEEEQKEIKEAEEKLVRTILKYVEEAAK | 1.16 nM
A90V (designed binder) SMEEEVEKAAKEYEKKKKEAIEKHLEKLKAKDKEAAERFLKELEEAAKEYAKDEAKTMSEEEAKRRAKKYKEKVLLSELSEEEQKEIKEVEEKLVRTILKYVEEAAK | 1.27 nM
E5T (designed binder) SMEETVEKAAKEYEKKKKEAIEKHLEKLKAKDKEAAERFLKELEEAAKEYAKDEAKTMSEEEAKRRAKKYKEKVLLSELSEEEQKEIKEAEEKLVRTILKYVEEAAK | 0.446 nM
E45Q (designed binder) SMEEEVEKAAKEYEKKKKEAIEKHLEKLKAKDKEAAERFLKELEQAAKEYAKDEAKTMSEEEAKRRAKKYKEKVLLSELSEEEQKEIKEAEEKLVRTILKYVEEAAK | 1.05 nM
K71S (designed binder) SMEEEVEKAAKEYEKKKKEAIEKHLEKLKAKDKEAAERFLKELEEAAKEYAKDEAKTMSEEEAKRRAKKYSEKVLLSELSEEEQKEIKEAEEKLVRTILKYVEEAAK | 0.869 nM
K31F (designed binder) SMEEEVEKAAKEYEKKKKEAIEKHLEKLKAFDKEAAERFLKELEEAAKEYAKDEAKTMSEEEAKRRAKKYKEKVLLSELSEEEQKEIKEAEEKLVRTILKYVEEAAK | 0.446 nM
E3T (designed binder) SMTEEVEKAAKEYEKKKKEAIEKHLEKLKAKDKEAAERFLKELEEAAKEYAKDEAKTMSEEEAKRRAKKYKEKVLLSELSEEEQKEIKEAEEKLVRTILKYVEEAAK | 1.4 nM
K33I (designed binder) SMEEEVEKAAKEYEKKKKEAIEKHLEKLKAKDIEAAERFLKELEEAAKEYAKDEAKTMSEEEAKRRAKKYKEKVLLSELSEEEQKEIKEAEEKLVRTILKYVEEAAK | 0.79 nM
K23A (designed binder) SMEEEVEKAAKEYEKKKKEAIEAHLEKLKAKDKEAAERFLKELEEAAKEYAKDEAKTMSEEEAKRRAKKYKEKVLLSELSEEEQKEIKEAEEKLVRTILKYVEEAAK | 0.446 nM
E26H (designed binder) SMEEEVEKAAKEYEKKKKEAIEKHLHKLKAKDKEAAERFLKELEEAAKEYAKDEAKTMSEEEAKRRAKKYKEKVLLSELSEEEQKEIKEAEEKLVRTILKYVEEAAK | 0.539 nM
E7Q (designed binder) SMEEEVQKAAKEYEKKKKEAIEKHLEKLKAKDKEAAERFLKELEEAAKEYAKDEAKTMSEEEAKRRAKKYKEKVLLSELSEEEQKEIKEAEEKLVRTILKYVEEAAK | 4.39 nM
S59A (designed binder) SMEEEVEKAAKEYEKKKKEAIEKHLEKLKAKDKEAAERFLKELEEAAKEYAKDEAKTMAEEEAKRRAKKYKEKVLLSELSEEEQKEIKEAEEKLVRTILKYVEEAAK | 0.593 nM
L25G (designed binder) SMEEEVEKAAKEYEKKKKEAIEKHGEKLKAKDKEAAERFLKELEEAAKEYAKDEAKTMSEEEAKRRAKKYKEKVLLSELSEEEQKEIKEAEEKLVRTILKYVEEAAK | 1.05 nM
E44V (designed binder) SMEEEVEKAAKEYEKKKKEAIEKHLEKLKAKDKEAAERFLKELVEAAKEYAKDEAKTMSEEEAKRRAKKYKEKVLLSELSEEEQKEIKEAEEKLVRTILKYVEEAAK | 0.446 nM
